Measured values reported in publication PMC2884949, “The outer membrane secretin PilQ from Neisseria meningitidis binds DNA”.

Columns and labels:
PilQ352-761 = molecular target: T1, PilQ352-761 (Neisseria meningitidis M1080, UniProt Q9JVW4 352-761); assay: EMSA; 5 mM Mg2+; EMSA: 50 mM MOPS pH 7.5, 1 mM EDTA, 1 mM DTT, 5 mM MgCl2, 5% glycerol, 200 ng protein in 10 ul, 20 min room temperature; 6% PAGE; settings: protein: recombinant, tags: His (C-terminal with pET28b), label: 5' 32P
T1 sequence: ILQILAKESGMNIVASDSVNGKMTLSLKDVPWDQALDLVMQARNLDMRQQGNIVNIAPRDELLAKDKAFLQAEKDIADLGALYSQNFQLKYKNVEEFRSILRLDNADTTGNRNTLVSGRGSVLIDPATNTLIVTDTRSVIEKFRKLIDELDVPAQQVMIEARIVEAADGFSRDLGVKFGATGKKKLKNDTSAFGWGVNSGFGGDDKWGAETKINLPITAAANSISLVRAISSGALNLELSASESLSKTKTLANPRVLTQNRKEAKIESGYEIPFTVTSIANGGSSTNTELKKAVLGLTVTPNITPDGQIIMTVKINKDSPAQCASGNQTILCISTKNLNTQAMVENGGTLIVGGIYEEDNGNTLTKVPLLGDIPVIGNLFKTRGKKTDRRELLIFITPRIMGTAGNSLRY

PilQ218-478 = molecular target: T2, PilQ218-478 (Neisseria meningitidis M1080, UniProt Q9JVW4 218-478); assay: as above; settings: protein: recombinant, tags: His (N-terminal with pQE30), label: 5' 32P
T2 sequence: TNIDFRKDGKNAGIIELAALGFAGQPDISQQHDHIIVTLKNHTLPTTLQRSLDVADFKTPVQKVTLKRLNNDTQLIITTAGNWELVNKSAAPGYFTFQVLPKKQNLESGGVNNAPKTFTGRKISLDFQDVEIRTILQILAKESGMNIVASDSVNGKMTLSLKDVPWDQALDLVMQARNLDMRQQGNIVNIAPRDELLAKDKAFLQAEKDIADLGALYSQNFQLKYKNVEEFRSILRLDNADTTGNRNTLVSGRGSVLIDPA

PilQ25-354 = molecular target: T3, PilQ25-354 (Neisseria meningitidis M1080, UniProt Q9JVW4 25-354); assay: as above; settings: protein: recombinant, tags: His (N-terminal with pQE30), label: 5' 32P
T3 sequence: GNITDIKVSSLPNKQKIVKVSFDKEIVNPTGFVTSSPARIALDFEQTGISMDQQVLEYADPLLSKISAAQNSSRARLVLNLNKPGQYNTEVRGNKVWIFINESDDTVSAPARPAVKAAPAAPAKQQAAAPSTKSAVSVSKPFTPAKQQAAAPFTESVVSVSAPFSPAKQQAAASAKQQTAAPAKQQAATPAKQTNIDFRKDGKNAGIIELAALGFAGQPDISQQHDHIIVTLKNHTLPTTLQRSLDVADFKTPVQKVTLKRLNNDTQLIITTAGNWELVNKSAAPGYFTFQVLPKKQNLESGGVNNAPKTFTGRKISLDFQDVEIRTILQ

PilQ25-132 = molecular target: T4, PilQ25-132 (Neisseria meningitidis M1080, UniProt Q9JVW4 25-132); assay: as above; settings: protein: recombinant, tags: His, label: 5' 32P
T4 sequence: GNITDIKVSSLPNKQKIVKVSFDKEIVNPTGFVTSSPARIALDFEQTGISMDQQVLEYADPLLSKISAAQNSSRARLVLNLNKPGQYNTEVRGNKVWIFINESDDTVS

[1] = molecular target: T5, PilQ complex (native secretin) (Neisseria meningitidis M1080, UniProt Q9JVW4 25-761); assay: Southwestern; whole-cell lysate, PilQ multimer band; EMSA: 50 mM MOPS pH 7.5, 1 mM EDTA, 1 mM DTT, 5 mM MgCl2, 5% glycerol, 200 ng protein in 10 ul, 20 min room temperature; 6% PAGE; settings: chain copies: 12, label: 5' 32P, ss, 1 strand
T5 sequence: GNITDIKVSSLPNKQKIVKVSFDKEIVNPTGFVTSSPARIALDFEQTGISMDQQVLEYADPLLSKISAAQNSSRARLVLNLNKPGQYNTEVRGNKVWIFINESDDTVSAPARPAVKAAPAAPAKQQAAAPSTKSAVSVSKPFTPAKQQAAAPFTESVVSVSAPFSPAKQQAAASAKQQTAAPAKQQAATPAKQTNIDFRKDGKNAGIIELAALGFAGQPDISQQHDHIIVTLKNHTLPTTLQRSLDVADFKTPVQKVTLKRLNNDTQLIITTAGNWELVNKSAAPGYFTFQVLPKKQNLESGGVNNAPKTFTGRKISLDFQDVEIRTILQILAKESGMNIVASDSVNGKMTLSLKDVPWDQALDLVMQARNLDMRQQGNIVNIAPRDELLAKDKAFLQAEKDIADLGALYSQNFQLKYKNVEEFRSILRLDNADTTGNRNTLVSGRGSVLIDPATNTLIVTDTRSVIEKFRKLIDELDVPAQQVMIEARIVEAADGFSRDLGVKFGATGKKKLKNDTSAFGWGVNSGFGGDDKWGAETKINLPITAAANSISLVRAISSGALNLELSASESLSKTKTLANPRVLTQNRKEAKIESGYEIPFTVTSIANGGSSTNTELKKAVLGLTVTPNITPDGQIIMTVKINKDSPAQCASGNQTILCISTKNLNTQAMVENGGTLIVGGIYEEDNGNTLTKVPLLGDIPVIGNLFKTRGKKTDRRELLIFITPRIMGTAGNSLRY

B1: T4 (ssDNA)
DNA: TGTTGTTGTTGTTGGCCTGTCATTTTGGATGACAGGCCTGTTGTTGTTGTTG
B1: no binding (PilQ352-761; ss, 1 strand); no binding (PilQ218-478; ss, 1 strand); binds (PilQ25-354; ss, 1 strand). B1: no binding (PilQ25-132; ss, 1 strand).

B2: T2 (ssDNA)
DNA: TGTTGTTGTTGTTGCCGTCTGAATTTGGTTCAGACGGCTGTTGTTGTTGTTG
B2: no binding (PilQ352-761; ss, 1 strand); binds (PilQ25-354; ss, 1 strand); no binding (PilQ25-132; ss, 1 strand).

GCCGATGCCGTCTGAATATCTTTCAGACGGCAGGCGGCGG (ssDNA) [T8]: no binding (PilQ352-761; ss, 1 strand); no binding (PilQ218-478; ss, 1 strand); binds (PilQ25-354; ss, 1 strand).

CCGCCGCCTGCCGTCTGAAAGATATTCAGACGGCATCGGC (ssDNA) [T7]: no binding (PilQ352-761; ss, 1 strand); binds (PilQ25-354; ss, 1 strand); no binding (PilQ25-132; ss, 1 strand).

B3: T7+T8 hybrid (dsDNA)
DNA 1: CCGCCGCCTGCCGTCTGAAAGATATTCAGACGGCATCGGC
DNA 2: GCCGATGCCGTCTGAATATCTTTCAGACGGCAGGCGGCGG
B3: no binding (PilQ352-761; blunt); binds (PilQ25-354; blunt).

B4: T1 (ssDNA)
DNA: CAACAACAACAACAGCCGTCTGAACCAAATTCAGACGGCAACAACAACAACA
B4: binds [1]; no binding (PilQ352-761; ss, 1 strand); no binding (PilQ218-478; ss, 1 strand). B4: binds (PilQ25-354; ss, 1 strand); no binding (PilQ25-132; ss, 1 strand).

B5: T1+T2 hybrid (dsDNA)
DNA 1: B4 DNA
DNA 2: B2 DNA
B5: no binding (PilQ352-761; blunt); no binding (PilQ218-478; blunt); binds (PilQ25-354; blunt).

B6: T3 (ssDNA)
DNA: CAACAACAACAACAGGCCTGTCATCCAAAATGACAGGCCAACAACAACAACA
B6: no binding (PilQ352-761; ss, 1 strand); no binding (PilQ218-478; ss, 1 strand); binds (PilQ25-354; ss, 1 strand). B6: no binding (PilQ25-132; ss, 1 strand).

B7: T3+T4 hybrid (dsDNA)
DNA 1: B6 DNA
DNA 2: B1 DNA
B7: no binding (PilQ352-761; blunt); binds (PilQ25-354; blunt); binds (PilQ25-132; blunt).
